Measured values: the supplement of paper PMC9732359
± gives the uncertainty stated by the source.

Experiment: protein stability index of a GFP-peptide fusion (yeast GPS) (PSI 1-4); higher = more stable; sorted into four equal gates, so the index is relative within each strain
Method in brief: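 Plasmids in a pooled yeast library fused tiled 17-residue yeast protein peptides downstream of GFP and also expressed Cherry. Mid-log cultures grown without leucine were sorted into four equal gates by GFP/Cherry fluorescence ratio. Each gate's plasmids were PCR-amplified and Illumina-sequenced, and reads were matched to strains by barcodes. The protein stability index is derived by multiplying each gate's read frequency by its gate number and summing the results.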

## HTEDEQIEKKKICRGRM [SIR4]
doa10∆
  protein stability index: 3.52 ± 0.17
pdr5∆
  protein stability index: 3.38 ± 0.12
san1∆
  protein stability index: 3.48 ± 0.13
ubr1∆
  protein stability index: 3.16 ± 0.083

## HTKSDERSELLRLFNAP [SNF2]
doa10∆
  protein stability index: 2.83 ± 0.06
pdr5∆
  protein stability index: 2.72 ± 0.065
san1∆
  protein stability index: 2.78 ± 0.049
ubr1∆
  protein stability index: 3.04 ± 0.06

## HTLMSFAGEAGDTVQFA [PRE1]
doa10∆
  protein stability index: 3.01 ± 0.11
pdr5∆
  protein stability index: 3.3 ± 0.15
san1∆
  protein stability index: 2.95 ± 0.095
ubr1∆
  protein stability index: 3.22 ± 0.12

## HVQFRLGNVDAFQLADG [PRP8]
doa10∆
  protein stability index: 3.28 ± 0.11
pdr5∆
  protein stability index: 2.79 ± 0.084
san1∆
  protein stability index: 2.47 ± 0.11
ubr1∆
  protein stability index: 1.61 ± 0.046

## HWMGSSVSGSPRPSYSS [YMR129W/POM152]
doa10∆
  protein stability index: 2.98 ± 0.088
pdr5∆
  protein stability index: 3.11 ± 0.089
san1∆
  protein stability index: 2.74 ± 0.07
ubr1∆
  protein stability index: 2.87 ± 0.084

## HYMVHEALNLLKFFLVD [LIN1]
doa10∆
  protein stability index: 2.19 ± 0.053
pdr5∆
  protein stability index: 1.7 ± 0.043
san1∆
  protein stability index: 1.79 ± 0.081
ubr1∆
  protein stability index: 2.11 ± 0.058

## HYNDSQQLRTWKRQISY [SRB8]
doa10∆
  protein stability index: 3.25 ± 0.085
pdr5∆
  protein stability index: 3.39 ± 0.14
san1∆
  protein stability index: 3.21 ± 0.09
ubr1∆
  protein stability index: 3.32 ± 0.19

## IAACTGVPDDKWEQTYK [FAS1]
doa10∆
  protein stability index: 1.63 ± 0.15
pdr5∆
  protein stability index: 1.21 ± 0.23
ubr1∆
  protein stability index: 1.31 ± 0.29

## IAATAVASLVLARGHRV [RPL4A]
doa10∆
  protein stability index: 2.6 ± 0.22
pdr5∆
  protein stability index: 1.93 ± 0.19
san1∆
  protein stability index: 2.08 ± 0.24
ubr1∆
  protein stability index: 1.93 ± 0.09

## IADQDMEDEDMVDVIID [ESC2]
doa10∆
  protein stability index: 3.41 ± 0.16
pdr5∆
  protein stability index: 3.3 ± 0.079
san1∆
  protein stability index: 3.15 ± 0.088
ubr1∆
  protein stability index: 3.15 ± 0.11

## IAKIKKVCECVCMHCGK [RPO21]
doa10∆
  protein stability index: 1.92 ± 0.057
pdr5∆
  protein stability index: 2.28 ± 0.067
san1∆
  protein stability index: 2.7 ± 0.091
ubr1∆
  protein stability index: 2.43 ± 0.046

## IAKLVAVLNVSPVYDVD [NUT1]
doa10∆
  protein stability index: 1.84 ± 0.056
pdr5∆
  protein stability index: 2.05 ± 0.046
san1∆
  protein stability index: 1.7 ± 0.084
ubr1∆
  protein stability index: 1.75 ± 0.043

## IALRNGQSSVKHEDFVE [RPT5]
doa10∆
  protein stability index: 2.89 ± 0.19
san1∆
  protein stability index: 3.23 ± 0.14
ubr1∆
  protein stability index: 3.41 ± 0.16

## IALSRRFLLNGRVKALE [YDL116W/NUP84]
doa10∆
  protein stability index: 1.25 ± 0.062
pdr5∆
  protein stability index: 1.3 ± 0.058
san1∆
  protein stability index: 1.19 ± 0.13
ubr1∆
  protein stability index: 1.24 ± 0.035

## IARLYSCISISDIISML [RRI2]
doa10∆
  protein stability index: 1.37 ± 0.061
pdr5∆
  protein stability index: 1.35 ± 0.05
san1∆
  protein stability index: 1.24 ± 0.093
ubr1∆
  protein stability index: 1.17 ± 0.029

## IASAGKDGEIMLWNLAA [ASC1]
doa10∆
  protein stability index: 2.92 ± 0.077
pdr5∆
  protein stability index: 1.66 ± 0.053
san1∆
  protein stability index: 3.03 ± 0.054
ubr1∆
  protein stability index: 3.09 ± 0.076

## IASDGSECIVSIKSKVV [RRP42]
doa10∆
  protein stability index: 3.1 ± 0.081
pdr5∆
  protein stability index: 3.12 ± 0.075
san1∆
  protein stability index: 2.7 ± 0.2
ubr1∆
  protein stability index: 3.12 ± 0.19

## ICEPKETLSIFTNVPLN [YJL039C/NUP192]
doa10∆
  protein stability index: 2.1 ± 0.046
pdr5∆
  protein stability index: 2.24 ± 0.042
san1∆
  protein stability index: 2.54 ± 0.05
ubr1∆
  protein stability index: 2.36 ± 0.037

## ICMESLFLEPSWSSSAA [PCI8]
pdr5∆
  protein stability index: 2.86 ± 0.12
san1∆
  protein stability index: 2.63 ± 0.15
ubr1∆
  protein stability index: 3.17 ± 0.11

## ICYDVNDWQMLEMLKPC [RPB2]
doa10∆
  protein stability index: 2.62 ± 0.063
pdr5∆
  protein stability index: 2.67 ± 0.086
san1∆
  protein stability index: 2.46 ± 0.073
ubr1∆
  protein stability index: 2.61 ± 0.062

## IDDENITKLNKEIRAFD [SRB4]
doa10∆
  protein stability index: 3.44 ± 0.066
pdr5∆
  protein stability index: 3.33 ± 0.063
san1∆
  protein stability index: 3.27 ± 0.043
ubr1∆
  protein stability index: 3.38 ± 0.056

## IDELIDTKLRLEKSKNE [YIL149C/MLP2]
doa10∆
  protein stability index: 2.62 ± 0.047
pdr5∆
  protein stability index: 2.81 ± 0.045
san1∆
  protein stability index: 2.8 ± 0.04
ubr1∆
  protein stability index: 2.8 ± 0.032

## IDKFIMVVQKYKLSTVV [GRR1]
doa10∆
  protein stability index: 1.73 ± 0.068
pdr5∆
  protein stability index: 1.9 ± 0.081
san1∆
  protein stability index: 1.58 ± 0.11
ubr1∆
  protein stability index: 1.86 ± 0.082

## IDKLSDVVMKATEPQMV [PRP8]
doa10∆
  protein stability index: 2.38 ± 0.063
pdr5∆
  protein stability index: 2.71 ± 0.064
san1∆
  protein stability index: 2.42 ± 0.065
ubr1∆
  protein stability index: 2.28 ± 0.055

## IDLDNDEDDDEDVTDQE [DLS1]
doa10∆
  protein stability index: 3.21 ± 0.12
pdr5∆
  protein stability index: 2.89 ± 0.16
san1∆
  protein stability index: 2.86 ± 0.083
ubr1∆
  protein stability index: 3.17 ± 0.15

## IDRKVEFSLPDLEGRAN [RPT1]
doa10∆
  protein stability index: 3.15 ± 0.097
pdr5∆
  protein stability index: 3.37 ± 0.1
san1∆
  protein stability index: 3.08 ± 0.17
ubr1∆
  protein stability index: 3.18 ± 0.1

## IDSQMDEASGTPDEDML [GRR1]
doa10∆
  protein stability index: 2.93 ± 0.063
pdr5∆
  protein stability index: 2.96 ± 0.065
san1∆
  protein stability index: 2.85 ± 0.068
ubr1∆
  protein stability index: 3.02 ± 0.053

## IEDDGIIESHLIQLQNI [CSN9]
doa10∆
  protein stability index: 2.77 ± 0.1
pdr5∆
  protein stability index: 3.17 ± 0.099
san1∆
  protein stability index: 2.97 ± 0.075
ubr1∆
  protein stability index: 2.76 ± 0.073

## IEDEDEPFNAGIKYHAT [SMC1]
doa10∆
  protein stability index: 3.04 ± 0.083
pdr5∆
  protein stability index: 2.82 ± 0.1
san1∆
  protein stability index: 2.9 ± 0.062
ubr1∆
  protein stability index: 2.89 ± 0.05

## IEEQDKKVQALQSDKNF [ITC1]
doa10∆
  protein stability index: 3.23 ± 0.076
pdr5∆
  protein stability index: 3.11 ± 0.054
san1∆
  protein stability index: 3.14 ± 0.045
ubr1∆
  protein stability index: 3.16 ± 0.036

## IEETSAAIKDLDDFGEE [RRP43]
doa10∆
  protein stability index: 2.85 ± 0.19

## IEKLTDGHLRAPLKHGV [BRR2]
doa10∆
  protein stability index: 1.72 ± 0.053
pdr5∆
  protein stability index: 2.86 ± 0.058
san1∆
  protein stability index: 3.01 ± 0.051
ubr1∆
  protein stability index: 2.04 ± 0.065

## IELTSYESIATYASVTG [RPN7]
doa10∆
  protein stability index: 1.1 ± 0.077
pdr5∆
  protein stability index: 1.31 ± 0.068
san1∆
  protein stability index: 1.11 ± 0.22
ubr1∆
  protein stability index: 1.15 ± 0.12

## IEPFECVEISHISKIIG [RPN6]
doa10∆
  protein stability index: 2.47 ± 0.14
san1∆
  protein stability index: 1.94 ± 0.3

## IERDSLVDDENEPSQSL [BRN1]
doa10∆
  protein stability index: 3.27 ± 0.12
pdr5∆
  protein stability index: 3.41 ± 0.12
san1∆
  protein stability index: 3.18 ± 0.082
ubr1∆
  protein stability index: 3.2 ± 0.077

## IESDSILNLLNILTTHL [ECM29]
doa10∆
  protein stability index: 2.39 ± 0.043
pdr5∆
  protein stability index: 2.02 ± 0.046
san1∆
  protein stability index: 1.75 ± 0.049
ubr1∆
  protein stability index: 2.32 ± 0.049

## IESIVNLAPKLRNVFLG [GRR1]
doa10∆
  protein stability index: 1.94 ± 0.13
pdr5∆
  protein stability index: 1.41 ± 0.085
san1∆
  protein stability index: 1.26 ± 0.14
ubr1∆
  protein stability index: 1.42 ± 0.064

## IEWCSRCNDNLMRSCFY [YJL039C/NUP192]
doa10∆
  protein stability index: 3.17 ± 0.089
pdr5∆
  protein stability index: 2.68 ± 0.085
san1∆
  protein stability index: 2.9 ± 0.067
ubr1∆
  protein stability index: 2.69 ± 0.083

## IFAGAFVFQTVFDTAIT [QCR9]
doa10∆
  protein stability index: 1.61 ± 0.048
pdr5∆
  protein stability index: 1.35 ± 0.033
san1∆
  protein stability index: 1.48 ± 0.076
ubr1∆
  protein stability index: 1.67 ± 0.04

## IFALVFSSNERYFFWLQ [RPN13]
doa10∆
  protein stability index: 1.25 ± 0.046
pdr5∆
  protein stability index: 1.61 ± 0.07
san1∆
  protein stability index: 1.65 ± 0.08
ubr1∆
  protein stability index: 1.87 ± 0.046

## IFCIDLEVFHHFFKWIE [SRB8]
doa10∆
  protein stability index: 1.25 ± 0.092
pdr5∆
  protein stability index: 1.64 ± 0.16
san1∆
  protein stability index: 1.38 ± 0.14

## IFDGNYGESDIHFREHQ [YMR129W/POM152]
doa10∆
  protein stability index: 3.26 ± 0.11
pdr5∆
  protein stability index: 3.21 ± 0.21
san1∆
  protein stability index: 3.58 ± 0.2
ubr1∆
  protein stability index: 3.05 ± 0.15

## IFIRQLKENEENEDGNI [BRR2]
doa10∆
  protein stability index: 3.5 ± 0.094
pdr5∆
  protein stability index: 3.37 ± 0.19
san1∆
  protein stability index: 3.2 ± 0.067
ubr1∆
  protein stability index: 2.01 ± 0.087

## IFKGIGGNFKDLSTLVH [GAL11]
doa10∆
  protein stability index: 2.07 ± 0.071
pdr5∆
  protein stability index: 1.74 ± 0.042
san1∆
  protein stability index: 1.83 ± 0.073
ubr1∆
  protein stability index: 1.85 ± 0.067

## IFLQQFLQELLKKVQQQ [SWI1]
doa10∆
  protein stability index: 2.94 ± 0.098
pdr5∆
  protein stability index: 2.37 ± 0.12
san1∆
  protein stability index: 2.56 ± 0.11
ubr1∆
  protein stability index: 2.5 ± 0.13

## IFLSKENSAVAAKEGLA [COR1]
doa10∆
  protein stability index: 1.48 ± 0.058
pdr5∆
  protein stability index: 2.19 ± 0.072
san1∆
  protein stability index: 1.95 ± 0.14
ubr1∆
  protein stability index: 1.6 ± 0.062

## IFSVHGNTVVDGEGKVD [YCG1]
doa10∆
  protein stability index: 3.12 ± 0.2
pdr5∆
  protein stability index: 3.46 ± 0.18

## IFTDAGRVYRPLFIVED [RPB2]
doa10∆
  protein stability index: 2.16 ± 0.066
pdr5∆
  protein stability index: 2.51 ± 0.08
san1∆
  protein stability index: 2.06 ± 0.074
ubr1∆
  protein stability index: 1.89 ± 0.033

## IGANIYQSPTIFKIVQS [MED6]
doa10∆
  protein stability index: 2.25 ± 0.069
pdr5∆
  protein stability index: 2.08 ± 0.072
san1∆
  protein stability index: 1.84 ± 0.1
ubr1∆
  protein stability index: 2.27 ± 0.037

## IGAVYSGMGPDYRVLVD [PRE8]
doa10∆
  protein stability index: 3.67 ± 0.28
san1∆
  protein stability index: 2.92 ± 0.3
ubr1∆
  protein stability index: 3.38 ± 0.12

## IGDKFASRHGQKGTIGI [RPB2]
doa10∆
  protein stability index: 1.34 ± 0.07
pdr5∆
  protein stability index: 1.96 ± 0.047
san1∆
  protein stability index: 1.57 ± 0.16
ubr1∆
  protein stability index: 1.1 ± 0.041

## IGIVEIAHENEQKWLIY [SRB8]
doa10∆
  protein stability index: 1.69 ± 0.067
pdr5∆
  protein stability index: 1.83 ± 0.051
san1∆
  protein stability index: 1.58 ± 0.086
ubr1∆
  protein stability index: 1.54 ± 0.034

## IGLIALSATGTRSAKKM [YJR042W/NUP85]
san1∆
  protein stability index: 3 ± 0.15

## IGMSLLMRTFLYTLAQE [SIR3]
doa10∆
  protein stability index: 1.82 ± 0.14
pdr5∆
  protein stability index: 2.37 ± 0.083
san1∆
  protein stability index: 1.83 ± 0.1
ubr1∆
  protein stability index: 1.76 ± 0.11

## IHLQRFDEGTTLLSPKD [RPO21]
doa10∆
  protein stability index: 2.94 ± 0.14
pdr5∆
  protein stability index: 2.57 ± 0.14
san1∆
  protein stability index: 2.91 ± 0.16
ubr1∆
  protein stability index: 2.98 ± 0.2
